In test [1] the target is T1, human FcγRIIβ (human, UniProt P31994 46-217, limits assumed).
T1 construct: also called FcγRIIb; R2b
T1 sequence (looked up): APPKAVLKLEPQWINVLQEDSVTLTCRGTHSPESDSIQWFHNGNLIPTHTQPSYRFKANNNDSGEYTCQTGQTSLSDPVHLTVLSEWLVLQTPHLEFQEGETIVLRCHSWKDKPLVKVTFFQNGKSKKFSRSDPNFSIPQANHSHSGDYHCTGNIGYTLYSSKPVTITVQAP
Kind of test: SPR, antibody captured on ProA/G HC30M chip, recombinant human FcγRIIβ injected (4 nM-5 uM); average kinetic KD. The protocol: (§1) Example 52: The binding of anti-FcγRIIβ antibodies to human FcγRIIβ was evaluated. Antibodies were captured on ProA/G HC30M chip at 5 ug/mL, 1 ug/mL, and 0.2 ug/mL for 15 minutes. Six buffer injections were made over the chip followed by injections of increasing concentrations of recombinant human FcγRIIβ (4 nm-5 uM). The association was measured during each injection for 5 minutes and the dissociation was measured for 10 minutes post injection with buffer flow (1×HBSTE+ BSA).
Background: In SPR one partner is held on a chip, and binding of the other changes the refractive index at the surface.

Test [2] has as its target T1, human FcγRIIβ. Kind of test: SPR, antibody captured on ProA/G HC30M chip, recombinant human FcγRIIβ injected (4 nM-5 uM); average steady state KD. The protocol: as §1
In a further test the target is T2, Cyno PD-1 (cyno).
T2 construct: also called cynomolgus PD-1; cyPD1
Kind of test: BLI (Octet RED96), antibody captured on anti-human IgG Fc biosensors, PD-1 titrated; steady state (footnote *).

For a further test, the target named is T3, Recombinant human PD-1 (human, UniProt Q15116 25-170, limits assumed).
T3 construct: Soluble recombinant analyte in BLI; also called huPD1
T3 sequence (Q15116 25-170 limits assumed): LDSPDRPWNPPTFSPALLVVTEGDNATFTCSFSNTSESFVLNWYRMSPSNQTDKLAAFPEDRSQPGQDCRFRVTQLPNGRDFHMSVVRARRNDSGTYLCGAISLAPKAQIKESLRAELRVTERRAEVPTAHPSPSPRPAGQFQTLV
Described as above.

The next test concerns the target FcγRI. Kind of test: Fc receptor affinity, Table 29 (method for Fc receptors not told in Example 43).
In test [3] the target is T1, human FcγRIIβ. The description is as above.
The target of test [4] is PD-1 (in the reporter cells of the PD-1 agonism assay) (Homo sapiens (Human), UniProt Q15116 25-288). Kind of test: cell-based or functional assay.
PD-1 (in the reporter cells of the PD-1 agonism assay), sequence (Q15116 25-288 limits assumed): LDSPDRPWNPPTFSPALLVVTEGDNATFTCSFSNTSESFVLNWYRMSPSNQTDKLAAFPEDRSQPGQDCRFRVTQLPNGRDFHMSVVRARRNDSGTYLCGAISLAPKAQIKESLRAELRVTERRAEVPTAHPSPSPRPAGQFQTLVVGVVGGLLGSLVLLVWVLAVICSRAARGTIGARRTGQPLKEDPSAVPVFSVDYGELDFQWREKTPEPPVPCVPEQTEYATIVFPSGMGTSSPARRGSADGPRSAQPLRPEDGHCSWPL
For test [5], the target named is T4, huFcγRIIβ (human, UniProt P31994 46-217).
T4 construct: also called huR2b; human FcγRIIβ (soluble antigen)
T4 sequence (looked up): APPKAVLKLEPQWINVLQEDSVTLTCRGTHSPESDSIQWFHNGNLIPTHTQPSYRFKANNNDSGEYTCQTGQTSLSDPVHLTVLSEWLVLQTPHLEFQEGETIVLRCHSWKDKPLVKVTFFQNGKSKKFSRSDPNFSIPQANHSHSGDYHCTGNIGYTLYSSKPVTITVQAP
Kind of test: BLI, antibody captured on AHC biosensors, receptor in solution. Here is the method: (§2) Example 19: Anti-FcγRIIβ antibodies were captured on AHC biosensors at a concentration of 5 μg/mL. Antigens (FcγRIIα/FcγRIIβ) were serially diluted two-fold with a starting concentration of 5u M. The biosensors with immobilized antibodies were dipped into the different antigen concentrations and kinetics data were collected.

In another test the target is T5, huFcγRIIα (R131) (human, UniProt P12318 36-218).
T5 construct: R131 allotype; also called human FcγRIIα R131 (soluble antigen)
T5 sequence (looked up): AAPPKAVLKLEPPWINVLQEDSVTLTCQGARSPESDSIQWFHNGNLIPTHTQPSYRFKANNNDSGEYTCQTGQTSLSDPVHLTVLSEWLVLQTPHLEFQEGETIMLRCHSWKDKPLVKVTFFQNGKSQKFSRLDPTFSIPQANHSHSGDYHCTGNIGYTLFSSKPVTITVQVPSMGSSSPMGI
Described as above. Here is the method:
as §2

In test [6] the target is T4, huFcγRIIβ. Kind of test: SPR, antibody captured on protein A/G chip, receptor injected as analyte. Here is the method:
(§3) Example 21: Anti-FcγRIIβ antibodies were captured on protein A/G chips at 10 ug/mL, 1 ug/mL and 0.1 ug/mL concentrations (in duplicates). Each analyte binder was injected at 7 concentrations with 5-fold serial dilutions, with the starting concentration for FcγRs at 5 uM, and for PD-1 at 0.5 uM. […] Kinetics data was subsequently collected.

The target of a further test is T6, CyR2a (monkey).
T6 construct: also called monkey FcγRIIα; Cy FcγRIIα
The description is as above. The protocol:
as §3

For another test, the target named is T7, CyR2b (monkey).
T7 construct: also called monkey FcγRIIβ; Cy FcγRIIβ
The description is as above. Here is the method: as §3

The target of a further test is huR2a (human, UniProt P12318 36-218). The test is described as above. The protocol:
as §3

Test [7] addresses T4, huFcγRIIβ. Kind of test: BLI; ratio of the KD for huFcγRIIα (R131) to the KD for huFcγRIIβ. Here is the method: as §2
On the technique in general: BLI is a label-free optical method that tracks binding on a fibre tip over time.

The next test deals with T8, FcRN.
T8 construct: also called neonatal Fc receptor
T8 sequence (P55899 24-297, chain 1 of 2): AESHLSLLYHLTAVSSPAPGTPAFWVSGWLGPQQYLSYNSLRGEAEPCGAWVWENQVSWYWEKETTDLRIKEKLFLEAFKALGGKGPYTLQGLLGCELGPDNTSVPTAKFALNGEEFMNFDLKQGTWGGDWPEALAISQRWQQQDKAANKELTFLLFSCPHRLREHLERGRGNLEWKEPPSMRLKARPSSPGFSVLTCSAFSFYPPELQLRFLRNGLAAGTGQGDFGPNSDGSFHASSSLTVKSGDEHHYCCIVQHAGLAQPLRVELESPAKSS
T8 sequence (P61769 21-119, chain 2 of 2, further chain): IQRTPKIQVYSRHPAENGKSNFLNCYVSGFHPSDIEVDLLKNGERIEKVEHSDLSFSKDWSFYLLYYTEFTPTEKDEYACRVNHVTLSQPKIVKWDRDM
Kind of test: BLI (AHC biosensors by Example 20); table headed FcRN Binding.

Test [8] deals with T1, human FcγRIIβ. Kind of test: ratio of KD on FcγRIIα R131 to KD on FcγRIIβ, Table 29.

A word on the Kd: it is the concentration at which binding is half-saturated. One may read the koff as a measure of how fast the partners let go of each other. The term kon denotes the second-order rate constant of association. A low value points to slow association.

FcγRI, sequence (P12314 16-292): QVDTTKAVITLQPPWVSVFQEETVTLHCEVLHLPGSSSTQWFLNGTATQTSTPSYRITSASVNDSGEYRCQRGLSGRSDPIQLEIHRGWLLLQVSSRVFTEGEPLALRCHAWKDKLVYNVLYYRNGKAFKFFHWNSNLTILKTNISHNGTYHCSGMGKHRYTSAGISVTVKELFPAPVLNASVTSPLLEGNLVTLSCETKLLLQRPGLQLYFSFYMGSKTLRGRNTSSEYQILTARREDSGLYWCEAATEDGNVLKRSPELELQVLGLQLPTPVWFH

B1: ARB40 (antibody, human IgG1, kappa)
heavy: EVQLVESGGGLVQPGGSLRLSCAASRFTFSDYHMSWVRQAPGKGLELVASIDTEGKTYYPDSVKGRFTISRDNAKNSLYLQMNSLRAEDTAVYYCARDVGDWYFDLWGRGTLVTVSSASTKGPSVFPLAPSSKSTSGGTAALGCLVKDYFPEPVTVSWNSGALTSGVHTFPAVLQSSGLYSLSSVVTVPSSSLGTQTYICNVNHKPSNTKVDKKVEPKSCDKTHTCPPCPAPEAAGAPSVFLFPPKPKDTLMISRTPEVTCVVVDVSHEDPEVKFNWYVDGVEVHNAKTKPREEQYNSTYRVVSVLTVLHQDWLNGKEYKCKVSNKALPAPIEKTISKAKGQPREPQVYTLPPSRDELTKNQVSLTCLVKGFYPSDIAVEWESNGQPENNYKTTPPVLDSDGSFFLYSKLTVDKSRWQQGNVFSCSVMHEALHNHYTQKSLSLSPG
light: DIVMTQSPLSLPVTPGEPASISCRSSRSLVHGSGDNYLHWYLQKPGQSPQLLIYMASNRAPGVPDRFSGSGSGTDFTLKISRVEAEDVGVYYCMQALRAPFSFGGGTKVEIKRTVAAPSVFIFPPSDEQLKSGTASVVCLLNNFYPREAKVQWKVDNALQSGNSQESVTEQDSKDSTYSLSSTLTLSKADYEKHKVYACEVTHQGLSSPVTKSFNRGEC
notes: copies: 2 + 2
As for B1, the Kd with human FcγRIIβ [1] and in the test with human FcγRIIβ [2] was 120 nM in each case.

B2: TA359 (antibody, human IgG1, lambda)
heavy: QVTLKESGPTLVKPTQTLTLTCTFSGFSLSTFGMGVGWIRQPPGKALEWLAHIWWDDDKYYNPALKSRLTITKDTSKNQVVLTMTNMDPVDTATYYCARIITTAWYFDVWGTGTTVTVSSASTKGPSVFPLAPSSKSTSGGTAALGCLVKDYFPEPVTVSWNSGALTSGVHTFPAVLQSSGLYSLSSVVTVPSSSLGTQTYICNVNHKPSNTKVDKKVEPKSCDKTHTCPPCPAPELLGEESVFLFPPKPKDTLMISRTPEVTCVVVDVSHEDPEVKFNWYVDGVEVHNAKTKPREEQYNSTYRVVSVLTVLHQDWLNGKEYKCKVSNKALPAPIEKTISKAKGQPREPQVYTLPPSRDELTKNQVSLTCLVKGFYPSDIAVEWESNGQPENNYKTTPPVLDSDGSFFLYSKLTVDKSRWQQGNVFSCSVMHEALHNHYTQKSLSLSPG
light: QAVVTQEPSLTVSPGGTVTLTCRSSTGAVTTSNYANWVQQKPGQAFRGLIGGTNNRAPGVPDRFSGSILGNKAALTITGAQADDESDYYCALWYSNHFIFGSGTKVTVLGQPKAAPSVTLFPPSSEELQANKATLVCLISDFYPGAVTVAWKADSSPVKAGVETTTPSKQSNNKYAASSYLSLTPEQWKSHRSYSCQVTHEGSTVEKTVAPTECS
With B2, the Kd with Cyno PD-1 worked out at 600 nM; with Recombinant human PD-1, 1000 nM; with human FcγRIIβ [3], 3100 nM. In the test with FcγRI, the “Affinity to RI relative to WT” value is above 10 fold lower than WT. The same molecule yielded an Emax in test [4] of 2.2. Moreover, in test [4], the “log EC50” value is -8.3.

B3: TA26 (bispecific antibody, human IgG1, kappa)
heavy: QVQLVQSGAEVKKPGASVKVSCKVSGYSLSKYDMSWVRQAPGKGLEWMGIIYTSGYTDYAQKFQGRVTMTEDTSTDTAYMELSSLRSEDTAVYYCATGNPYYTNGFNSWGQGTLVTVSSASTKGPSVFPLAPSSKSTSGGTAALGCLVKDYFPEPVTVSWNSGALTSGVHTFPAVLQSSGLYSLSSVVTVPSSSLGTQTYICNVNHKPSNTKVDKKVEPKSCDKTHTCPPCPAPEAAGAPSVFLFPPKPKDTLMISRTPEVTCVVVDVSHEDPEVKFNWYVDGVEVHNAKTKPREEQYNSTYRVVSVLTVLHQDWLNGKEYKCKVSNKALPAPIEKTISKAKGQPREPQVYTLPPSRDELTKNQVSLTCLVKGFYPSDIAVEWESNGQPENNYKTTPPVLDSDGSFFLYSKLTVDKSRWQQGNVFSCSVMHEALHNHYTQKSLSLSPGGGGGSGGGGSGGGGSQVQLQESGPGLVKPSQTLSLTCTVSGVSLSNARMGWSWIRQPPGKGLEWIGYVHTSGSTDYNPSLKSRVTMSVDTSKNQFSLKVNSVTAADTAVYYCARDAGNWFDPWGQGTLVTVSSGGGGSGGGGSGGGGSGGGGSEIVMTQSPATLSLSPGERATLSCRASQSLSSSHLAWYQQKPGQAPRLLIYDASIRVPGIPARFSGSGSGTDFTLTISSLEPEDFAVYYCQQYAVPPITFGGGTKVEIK
light: DIQMTQSPSSLSASVGDRVTITCQASQSPNNLLAWYQQKPGKAPKLLIYGASDLPSGVPSRFSGSGSGTDFTLTISSLQPEDFATYYCQNNYYVGPVSYAFGGGTKVEIKRTVAAPSVFIFPPSDEQLKSGTASVVCLLNNFYPREAKVQWKVDNALQSGNSQESVTEQDSKDSTYSLSSTLTLSKADYEKHKVYACEVTHQGLSSPVTKSFNRGEC
With B3, the equilibrium dissociation constant (Kd) with huFcγRIIβ [5] came out at 50.2 nM; in the test with huFcγRIIα (R131) it was 715 nM; in the test with huFcγRIIβ [6] it was 154 nM; with CyR2a, 2480 nM; in the test with CyR2b it was 3130 nM; in the test with huR2a it was 6510 nM. The same molecule registered a Kd in the test with FcRN of 236 nM. Further, in the test with huFcγRIIβ [7], the Fold selectivity is 14 fold. The off-rate constant (koff) in the test with FcRN worked out at 0.0951 s⁻¹. Besides, the kon in the test with FcRN amounted to 403000 M⁻¹ s⁻¹.

B4: ARB49 (antibody, human IgG1, kappa)
heavy: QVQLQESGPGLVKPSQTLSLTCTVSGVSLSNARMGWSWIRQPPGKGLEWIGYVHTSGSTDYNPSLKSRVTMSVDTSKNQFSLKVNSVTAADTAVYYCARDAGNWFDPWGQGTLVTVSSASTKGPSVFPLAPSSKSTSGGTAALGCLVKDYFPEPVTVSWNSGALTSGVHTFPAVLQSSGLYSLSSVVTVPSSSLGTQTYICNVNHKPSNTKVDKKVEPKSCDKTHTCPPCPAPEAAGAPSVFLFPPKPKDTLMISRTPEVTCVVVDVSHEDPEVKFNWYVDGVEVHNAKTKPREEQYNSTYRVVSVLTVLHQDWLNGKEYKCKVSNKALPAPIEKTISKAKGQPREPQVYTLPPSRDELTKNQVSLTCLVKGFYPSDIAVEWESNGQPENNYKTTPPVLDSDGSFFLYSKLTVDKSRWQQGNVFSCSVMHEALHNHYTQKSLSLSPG
light: EIVMTQSPATLSLSPGERATLSCRASQSLSSSHLAWYQQKPGQAPRLLIYDASIRVPGIPARFSGSGSGTDFTLTISSLEPEDFAVYYCQQYAVPPITFGGGTKVEIKRTVAAPSVFIFPPSDEQLKSGTASVVCLLNNFYPREAKVQWKVDNALQSGNSQESVTEQDSKDSTYSLSSTLTLSKADYEKHKVYACEVTHQGLSSPVTKSFNRGEC
notes: copies: 2 + 2
As to B4, the dissociation constant Kd with human FcγRIIβ [1] was found to be 37.3 nM; in the test with human FcγRIIβ [2], 40 nM.

B5: TA322 (antibody, human IgG1, kappa)
heavy: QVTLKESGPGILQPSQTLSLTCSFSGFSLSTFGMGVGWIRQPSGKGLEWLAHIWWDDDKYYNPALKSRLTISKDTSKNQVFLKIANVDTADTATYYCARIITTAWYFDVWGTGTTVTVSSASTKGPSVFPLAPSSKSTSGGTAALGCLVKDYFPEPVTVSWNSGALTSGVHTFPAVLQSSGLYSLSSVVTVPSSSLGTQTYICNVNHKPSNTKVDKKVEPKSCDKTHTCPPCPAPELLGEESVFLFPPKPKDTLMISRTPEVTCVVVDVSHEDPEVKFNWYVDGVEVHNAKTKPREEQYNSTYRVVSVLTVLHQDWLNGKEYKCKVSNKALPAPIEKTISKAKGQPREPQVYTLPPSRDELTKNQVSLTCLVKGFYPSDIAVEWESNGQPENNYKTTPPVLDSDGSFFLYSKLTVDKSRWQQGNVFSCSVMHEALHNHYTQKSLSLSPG
light: QAVVTQESALTTSPGETVTLTCRSSTGAVTTSNYANWVQEKPDHLFTGLIGGTNNRAPGVPARFSGSLIGDKAALTITGAQTEDEAIYFCALWYSNHFIFGSGTKVTVLRTVAAPSVFIFPPSDEQLKSGTASVVCLLNNFYPREAKVQWKVDNALQSGNSQESVTEQDSKDSTYSLSSTLTLSKADYEKHKVYACEVTHQGLSSPVTKSFNRGEC
Consider B5, for which the “Affinity to RI relative to WT” value in the test with FcγRI is above 10 fold lower than WT. Binding in the test with human FcγRIIβ [3] was put at a Kd of 3500 nM. The “R131/2b (fold)” value with human FcγRIIβ [8] came to 9.7 fold. In [4], the Emax came to 2.1 and the “log EC50” value was -8.3.

For the origin of these results see patent US20240368283A1 (published 2024).
